Data published in US20200140835.

What was measured:
[1] = system: Helical-III domain of SpCas9, supplied in trans
[2] = system: SpCas9 delta-Helical-III deletion F498-Q712 replaced by GGS linker (Streptococcus pyogenes); test: cleavage_in_vitro; conditions: Helical-III in trans rescues ~100-fold; 5 mM MgCl2

Substance | cleavage with a PAM-distal mismatched target [1] | on-target cleavage rate (radiolabeled DNA cleavage assay) [1] | activity (fold decrease vs WT) [2]
SpCas9ΔHelical-III (ΔF498-Q712 with GGS linker) | had no effect on cleavage with a PAM-distal mismatched target | rescued the on-target cleavage rate by ˜100-fold in a concentration-dependent manner | 
lambda1-targeting sgRNA ; lambda1 on-target DNA |  |  | 1000
